Values of other authors, collected in patent US9550786B2, “4-fluoropiperidine orexin receptor antagonists” (Merck Sharp & Dohme Corp., priority 2013, dated 2017).
Ends that are not written are not given here.

Columns and labels:
OX1R = target: T1, OX1R (Homo sapiens, UniProt O43613)
T1 sequence (O43613 1-425): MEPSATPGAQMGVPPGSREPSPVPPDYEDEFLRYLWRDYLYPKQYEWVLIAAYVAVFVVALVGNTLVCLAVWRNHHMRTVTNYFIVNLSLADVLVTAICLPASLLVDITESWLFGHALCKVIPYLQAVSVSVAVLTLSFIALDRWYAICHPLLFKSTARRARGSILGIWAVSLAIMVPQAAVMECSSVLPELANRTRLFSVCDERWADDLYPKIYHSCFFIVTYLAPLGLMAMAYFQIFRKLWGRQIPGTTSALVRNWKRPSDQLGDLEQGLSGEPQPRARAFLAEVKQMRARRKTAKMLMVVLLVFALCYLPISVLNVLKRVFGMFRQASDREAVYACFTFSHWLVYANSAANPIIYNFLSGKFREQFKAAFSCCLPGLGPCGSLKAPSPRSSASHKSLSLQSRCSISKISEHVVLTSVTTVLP

OX2R = target: T2, OX2R (Homo sapiens, UniProt O43614)
T2 sequence (O43614 1-444): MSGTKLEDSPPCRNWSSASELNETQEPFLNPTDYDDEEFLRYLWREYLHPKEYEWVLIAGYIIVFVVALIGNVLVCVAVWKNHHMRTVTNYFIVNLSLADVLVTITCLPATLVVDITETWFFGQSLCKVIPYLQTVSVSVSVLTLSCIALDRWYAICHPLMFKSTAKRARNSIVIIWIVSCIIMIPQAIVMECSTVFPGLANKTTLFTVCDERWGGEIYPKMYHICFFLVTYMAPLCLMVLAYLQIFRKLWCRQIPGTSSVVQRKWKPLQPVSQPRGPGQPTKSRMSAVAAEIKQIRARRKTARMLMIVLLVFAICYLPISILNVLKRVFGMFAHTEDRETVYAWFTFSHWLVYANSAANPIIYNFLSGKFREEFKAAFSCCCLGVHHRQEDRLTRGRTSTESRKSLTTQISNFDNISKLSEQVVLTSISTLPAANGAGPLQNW

Row | Substance | binding affinity toward OX1R (OX1R) [nM] | binding affinity toward OX2R (OX2R) [nM]
1 | orexin A (QPLPDCCRQKTCSCRLYELLHGAGNHAAGILTL; not fully specified (residue 1, C-terminus, bridges); cysteine pairing not given here; UniProt O43612 34-66, looked up) [OX-A] | 20 | 
2 | orexin B [OX-B] | 420 | 36
